We go through 2 molecules from publication PMC4180932, “Reorganisation of the Salivary Mucin Network by Dietary Components: Insights from Green Tea Polyphenols” (PLOS One, 2014).

Data set [1] addresses CT5B, recombinant C-terminal construct of MUC5B (D4-B-C-CK domains, residues 4958-5765) (human). Description: SDS-PAGE; purified recombinant protein seen as monomer and dimer; gels of gradient fractions, silver stained (NT5B) or Coomassie stained (CT5B).
Data set [2] deals with the molecule itself. Described as above.

As to “CT5B, recombinant C-terminal construct of MUC5B (D4-B-C-CK domains, residues 4958-5765) (domain or fragment)”, the stoichiometry N in data set [1] came out at 2.

B1: NT5B, recombinant N-terminal construct of MUC5B (D1-D2-D′-D3 domains, residues 26-1304) (domain or fragment, human, UniProt Q9HC84 26-1304, looked up)
chain: QGPVEPSWENAGHTMDGGAPTSSPTRRVSFVPPVTVFPSLSPLNPAHNGRVCSTWGDFHYKTFDGDVFRFPGLCNYVFSEHCRAAYEDFNVQLRRGLVGSRPVVTRVVIKAQGLVLEASNGSVLINGQREELPYSRTGLLVEQSGDYIKVSIRLVLTFLWNGEDSALLELDPKYANQTCGLCGDFNGLPAFNEFYAHNARLTPLQFGNLQKLDGPTEQCPDPLPLPAGNCTDEEGICHRTLLGPAFAECHALVDSTAYLAACAQDLCRCPTCPCATFVEYSRQCAHAGGQPRNWRCPELCPRTCPLNMQHQECGSPCTDTCSNPQRAQLCEDHCVDGCFCPPGTVLDDITHSGCLPLGQCPCTHGGRTYSPGTSFNTTCSSCTCSGGLWQCQDLPCPGTCSVQGGAHISTYDEKLYDLHGDCSYVLSKKCADSSFTVLAELRKCGLTDNENCLKAVTLSLDGGDTAIRVQADGGVFLNSIYTQLPLSAANITLFTPSSFFIVVQTGLGLQLLVQLVPLMQVFVRLDPAHQGQMCGLCGNFNQNQADDFTALSGVVEATGAAFANTWKAQAACANARNSFEDPCSLSVENENYARHWCSRLTDPNSAFSRCHSIINPKPFHSNCMFDTCNCERSEDCLCAALSSYVHACAAKGVQLSDWRDGVCTKYMQNCPKSQRYAYVVDACQPTCRGLSEADVTCSVSFVPVDGCTCPAGTFLNDAGACVPAQECPCYAHGTVLAPGEVVHDEGAVCSCTGGKLSCLGASLQKSTGCAAPMVYLDCSNSSAGTPGAECLRSCHTLDVGCFSTHCVSGCVCPPGLVSDGSGGCIAEEDCPCVHNEATYKPGETIRVDCNTCTCRNRRWECSHRLCLGTCVAYGDGHFITFDGDRYSFEGSCEYILAQDYCGDNTTHGTFRIVTENIPCGTTGTTCSKAIKLFVESYELILQEGTFKAVARGPGGDPPYKIRYMGIFLVIETHGMAVSWDRKTSVFIRLHQDYKGRVCGLCGNFDDNAINDFATRSRSVVGDALEFGNSWKLSPSCPDALAPKDPCTANPFRKSWAQKQCSILHGPTFAACRSQVDSTKYYEACVNDACACDSGGDCECFCTAVAAYAQACHDAGLCVSWRTPDTCPLFCDFYNPHGGCEWHYQPCGAPCLKTCRNPSGHCLVDLPGLEGCYPKCPPSQPFFNEDQMKCVAQCGCYDKDGNYYDVGARVPTAENCQSCNCTPSGIQCAHSLEACTCTYEDRTYSYQDVIYNTTDGLGACLIAICGSNGTIIRKAVACPG
notes: MUC5B, human, D1-D2-D′-D3 domains, residues 26-1304; Purified as a mixture of monomer and dimer (75 and 150 kDa as printed); also called N-terminal MUC5B protein
As for B1, in data set [2], the “stoichiometry N” value was 2.

One may read the stoichiometry N as the number of molecules, sites or subunits per partner or assembly.
